Results taken from article PMC3317646, “Interaction of Chandipura Virus N and P Proteins: Identification of Two Mutually Exclusive Domains of N Involved in Interaction with P” (PLoS ONE, 2012).
Like-named read-outs stand apart in the source and are kept apart here.

B1: N(1–47), bacterially expressed (domain or fragment)
chain: MSSQVFCISTGQTVSVCLPANEDPVEFPGAFFTPNAKKPTVYIKKET
notes: Chandipura virus nucleocapsid protein N, residues 1-47; source: E. coli BL21(DE3) or BL21(DE3)pLysS, purified (anion exchange, MonoQ 5/50 GL)
B2: N(1–390), bacterially expressed (domain or fragment)
chain: MSSQVFCISTGQTVSVCLPANEDPVEFPGAFFTPNAKKPTVYIKKETDLSLLRSHVYDGIKDGSVTVSQINSYLYMVLKDIREKPDKNWTSFGVELGKKNEPMGIFDLLNVEDVKGKELDKKGQDTRLPGDDLWLPTLIFGLYRVSRATQVEYKKTLMTNLYAQCKLRTKDAEEIVDETAEFFNAWANDSNFTKIVAAVDMYFHHFKKSDHAPIRFGTIVSRFKDCAALSTLSHLQKVTGLPIEEVFTWVFNKSVQDDLLRMMTPGQEIDQADSYMPYLIDMGLSTKSPYSSTKNPSFHFWGQLTAFLVKSARAKNALVPVDIAYHELTTAALLFAYAIGRSSELEQRFVLNGKKFTKEKDSREDNDTTPPSERNVVVWLAWWEDIKHEI
notes: Chandipura virus nucleocapsid protein N, residues 1-390; source: E. coli BL21(DE3) or BL21(DE3)pLysS, purified (anion exchange, MonoQ 5/50 GL)
B3: N(1/180–265/422), bacterially expressed (domain or fragment)
chain: MSSQVFCISTGQTVSVCLPANEDPVEFPGAFFTPNAKKPTVYIKKETDLSLLRSHVYDGIKDGSVTVSQINSYLYMVLKDIREKPDKNWTSFGVELGKKNEPMGIFDLLNVEDVKGKELDKKGQDTRLPGDDLWLPTLIFGLYRVSRATQVEYKKTLMTNLYAQCKLRTKDAEEIVDETAPGQEIDQADSYMPYLIDMGLSTKSPYSSTKNPSFHFWGQLTAFLVKSARAKNALVPVDIAYHELTTAALLFAYAIGRSSELEQRFVLNGKKFTKEKDSREDNDTTPPSERNVVVWLAWWEDIKHEITPDMKAFAKRAVERVGDIRVNSVAEYARKLFA
notes: also called middle deletant; source: E. coli BL21(DE3) or BL21(DE3)pLysS, purified (anion exchange, MonoQ 5/50 GL)
B4: Chandipura virus phosphoprotein (P), wild-type, untagged, bacterially expressed (natural protein)
chain: MEDSQLYQALKNYPKLQDTLDSIENLEDDTKSEPSECGSPTERGIPSYYLAEELDECEEEDSEEDDDNLPTEIPDPPTVDMLEAIMEDEIDDTAYQVHFEAKQTWKPVIETGGNERGKFTLSVPQNLSALQLLQWETGIHALAERLGGCRLLQISTRGTRDGIEFTVRETPCVSPASDPIPSTSRSSSIASNVSTRQTESPGSKSNTSLGIPEAPANLIDMGAIDKEFILAAISPSDPPYKNTLRNLFGSGDSFEQYNQTGIYSLKELVIAGLKRKGIYNRIRIRCHLEPQFN
notes: Chandipura virus phosphoprotein P, wild-type (pET3a-P); also called CHPV P; pET3a-P; source: bacterially expressed, purified (Q-Sepharose anion exchange)
B5: N(22–422), bacterially expressed (domain or fragment)
chain: EDPVEFPGAFFTPNAKKPTVYIKKETDLSLLRSHVYDGIKDGSVTVSQINSYLYMVLKDIREKPDKNWTSFGVELGKKNEPMGIFDLLNVEDVKGKELDKKGQDTRLPGDDLWLPTLIFGLYRVSRATQVEYKKTLMTNLYAQCKLRTKDAEEIVDETAEFFNAWANDSNFTKIVAAVDMYFHHFKKSDHAPIRFGTIVSRFKDCAALSTLSHLQKVTGLPIEEVFTWVFNKSVQDDLLRMMTPGQEIDQADSYMPYLIDMGLSTKSPYSSTKNPSFHFWGQLTAFLVKSARAKNALVPVDIAYHELTTAALLFAYAIGRSSELEQRFVLNGKKFTKEKDSREDNDTTPPSERNVVVWLAWWEDIKHEITPDMKAFAKRAVERVGDIRVNSVAEYARKLFA
notes: source: E. coli BL21(DE3) or BL21(DE3)pLysS, purified (anion exchange, MonoQ 5/50 GL)

Columns and labels:
[1] = target: the molecule itself; experiment: SEC; each purified protein alone on Superdex-200 / S-200 (10/300), 100 mM NaCl TET buffer; oligomerization status from the elution volume
[2] = target: the molecule itself; experiment: as above; remark: listed apart in the source

| Protein | stoichiometry N [1] | stoichiometry N [2] |
| --- | --- | --- |
| B1 | 3 |  |
| B2 | 8 |  |
| B3 | 3 | 2 |
| B4 |  | 2 |
| B5 | 8 |  |
